Experimental data: PMC4355727

Molecular target: FLAG-tagged Rab32 T39N (UniProt Q13637)
Test: co-IP

Chain of UniProt Q13637 (Q13637 whole entry T39N): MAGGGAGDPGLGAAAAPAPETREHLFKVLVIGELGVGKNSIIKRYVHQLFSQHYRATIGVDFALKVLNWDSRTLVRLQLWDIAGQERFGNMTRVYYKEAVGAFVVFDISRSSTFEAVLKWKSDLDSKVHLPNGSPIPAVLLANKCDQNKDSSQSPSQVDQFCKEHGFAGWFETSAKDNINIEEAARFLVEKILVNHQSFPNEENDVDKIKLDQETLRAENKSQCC

- fraction of the interaction detected with active Rab32 Q85L: 0.25
Substance: HA-tagged Drp1 S656A (natural protein)
